Reference: patent US20250320252A1 (Scripps Research, published 2025)
Like-named read-outs stand apart in the source and are kept apart here. Bridge positions count the residues as written; N and C are the ends. Square brackets hold non-standard residues; d marks the D form. Ends that are not written are not given here. C20L5A = not defined here; Nle = CCCC[C@H](N)C(=O)O; L5A = not defined here; K4 = not defined here; K5 = not defined here; Aib = CC(C)(N)C(=O)O

B1: mCMD307 (2050-K4) (peptide)
peptide: Y[Aib]EGTFTSDYSIYKDKQAA[Aib]KFVNWLLAGGPSSGAPPPS-NH2
modifications: bridge 14-21; not fully specified (bridges); also: K4 staple carries PEG-fatty acid

How the values were obtained:
Assay in all cases: cell-based or functional assay
human GLP-1 receptor [1] = biological target: T1, human GLP-1 receptor (human, UniProt P43220 24-463)
human GIP receptor [2] = biological target: T2, human GIP receptor (human, UniProt P48546 22-466)
T2 sequence (looked up): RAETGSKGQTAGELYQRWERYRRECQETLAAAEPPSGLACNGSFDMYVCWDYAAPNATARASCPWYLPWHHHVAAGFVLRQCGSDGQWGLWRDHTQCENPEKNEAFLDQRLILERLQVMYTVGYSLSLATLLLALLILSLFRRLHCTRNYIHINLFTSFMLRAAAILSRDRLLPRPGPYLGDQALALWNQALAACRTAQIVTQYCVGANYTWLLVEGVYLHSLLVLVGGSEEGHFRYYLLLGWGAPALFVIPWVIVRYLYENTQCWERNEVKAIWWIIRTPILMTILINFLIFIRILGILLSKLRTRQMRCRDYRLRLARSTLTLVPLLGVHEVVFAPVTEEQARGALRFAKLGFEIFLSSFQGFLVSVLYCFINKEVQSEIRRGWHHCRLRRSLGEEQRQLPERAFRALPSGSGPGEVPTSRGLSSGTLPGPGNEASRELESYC

human GLP-1 receptor [3] = biological target: T1, human GLP-1 receptor; remark: listed apart in the source
human GIP receptor [4] = biological target: T2, human GIP receptor; remark: listed apart in the source
human GLP-1 receptor [5] = biological target: T1, human GLP-1 receptor; remark: listed apart in the source
human GIP receptor [6] = biological target: T2, human GIP receptor; remark: listed apart in the source
human GLP-1 receptor [7] = biological target: T1, human GLP-1 receptor; remark: listed apart in the source
human GIP receptor [8] = biological target: T2, human GIP receptor; remark: listed apart in the source

Binder | EC50 [nM] of receptor-mediated cAMP synthesis (human GLP-1 receptor [3]) [nM] | EC50 [nM] of receptor-mediated cAMP synthesis (human GIP receptor [4]) [nM] | EC50 [nM] of receptor-mediated cAMP synthesis (human GIP receptor [6]) [nM] | EC50 of receptor-mediated cAMP synthesis, GLP1R (nM), 02/19 (human GLP-1 receptor [7]) [nM] | EC50 of receptor-mediated cAMP synthesis, GLP1R (nM), 3/25 (human GLP-1 receptor [7]) [nM] | EC50 of receptor-mediated cAMP synthesis, GIPR (nM), 02/19 (human GIP receptor [8]) [nM] | EC50 of receptor-mediated cAMP synthesis, GIPR (nM), 03/25 (human GIP receptor [8]) [nM] | EC50 of receptor-mediated cAMP synthesis, GIPR (nM), 03/26 (human GIP receptor [8]) [nM] | EC50 of receptor-mediated cAMP synthesis, GIPR (nM), average (human GIP receptor [8]) [nM] | further results
Y[Aib]EGTFTSDYSIYLDKCAA[Aib]EFVCWLLAGGPSSGAPPPS-NH2 (linker 17-24 via L5A; not fully specified; reading uncertain) [C(17-24)-L5A] | – | – | – | – | – | – | – | – | – | EC50 [nM] of receptor-mediated cAMP synthesis (human GLP-1 receptor [1]): 0.11 nM; EC50 [nM] of receptor-mediated cAMP synthesis (human GIP receptor [2]): 0.05 nM
H-Y[Aib]EGTFHSDYDIYKDKQAA[Aib]KFVQWLLAGGPSSGAPPPS-NH2 (bridge 14-21 via K5; reading uncertain) [ZA-41 - K5] | 83.9 | 12.6 | – | – | – | – | – | – | – | –
Y[Aib]EGTFISDVSIYCDKQAA[Aib]CFVNWLIAGGPSSGAPPPS-NH2 (linker 14-21 via C20L5A; not fully specified; reading uncertain) [7I, 10V, 27I, C(14-21) - C20L5A] | – | – | 303 | – | – | – | – | – | – | EC50 [nM] of receptor-mediated cAMP synthesis (human GLP-1 receptor [5]): ~13700 nM
Y[Aib]EGTFTSDYSIYCDKQAA[Aib]CFVNWLIAGGPSSGAPPPS-NH2 (linker 14-21 via L5A; not fully specified; reading uncertain) [27I, C(14-21)-L5A] | – | – | 0.03 | – | – | – | – | – | – | EC50 [nM] of receptor-mediated cAMP synthesis (human GLP-1 receptor [5]): 0.04 nM
Y[Aib]EGTYTSDYSIYCDKQAA[Aib]CFVNWLIAGGPSSGAPPPS-NH2 (linker 14-21 via C20L5A; not fully specified; reading uncertain) [6Y, 27I, C(14-21)-C20L5A] | – | – | – | 0.04 | 0.07 | 0.5 | 0.58 | 0.6 | 0.56 | EC50 of receptor-mediated cAMP synthesis, GLP1R (nM), 03/26 (human GLP-1 receptor [7]): 0.07 nM; EC50 of receptor-mediated cAMP synthesis, GLP1R (nM), average (human GLP-1 receptor [7]): 0.06 nM
H-Y[Aib]EGTFT[dS]DY[dS]IYKDKQAA[Nle]KFVAWLLAGGPSSGAPPPS-NH2 (linker 14-21 via K4; not fully specified; reading uncertain) [ZA-43 - K4] | 1.32 | 11.3 | – | – | – | – | – | – | – | –
Y[Aib]EGTYTNDYSIYLDKCAA[Aib]EFVCWLIAGGPSSGAPPPS-NH2 (linker 17-24 via C20L5A; not fully specified; reading uncertain) [6Y, 8N, 27I, C(17-24)-C20L5A] | – | – | – | 0.06 | 0.11 | 2.48 | – | 3.29 | 2.88 | EC50 of receptor-mediated cAMP synthesis, GLP1R (nM), 03/26 (human GLP-1 receptor [7]): 0.07 nM; EC50 of receptor-mediated cAMP synthesis, GLP1R (nM), average (human GLP-1 receptor [7]): 0.08 nM
H-Y[Aib]EGTFT[dS]DY[dS]IYKDKQAA[Nle]KFVAWLLAGGPSSGAPPPS-NH2 (linker 14-21 via K5; not fully specified; reading uncertain) [ZA-43 - K5] | 3.74 | 15.7 | – | – | – | – | – | – | – | –
Y[Aib]EGTFTSDYSIYCDKQAA[Aib]CFVNWLIAGGPSSGAPPPS-NH2 (linker 14-21 via C20L5A; not fully specified; reading uncertain) [mCMV266 (27I, C(14-21)-C20L5A)] | – | – | 0.07 | 0.03 | 0.05 | 0.08 | 0.06 | 0.06 | 0.07 | EC50 of receptor-mediated cAMP synthesis, GLP1R (nM), 03/26 (human GLP-1 receptor [7]): 0.06 nM; EC50 of receptor-mediated cAMP synthesis, GLP1R (nM), average (human GLP-1 receptor [7]): 0.05 nM; EC50 [nM] of receptor-mediated cAMP synthesis (human GLP-1 receptor [5]): 0.05 nM
H-Y[Aib]EGTFHSDYDIYKDKQAA[Aib]KFVQWLLAGGPSSGAPPPS-NH2 (bridge 14-21 via K4; reading uncertain) [ZA-41 - K4] | 13.8 | 5.31 | – | – | – | – | – | – | – | –
Y[Aib]EGTFTSDYSIYLDKCAQ[Aib]AFVCWLIAQGPSSGAPPPS-NH2 (linker 17-24 via C20L5A; not fully specified; reading uncertain) [19Q, 21A, 27I, 29Q, C(17-24) - C20L5A] | – | – | – | – | – | – | – | – | – | EC50 [nM] of receptor-mediated cAMP synthesis (human GIP receptor [2]): 0.02 nM
Y[Aib]EGTFTSDYSIYCDKQAA[Aib]CFVNWLLAGGPSSGAPPPS-NH2 (linker 14-21 via L5A; not fully specified; reading uncertain) [mCMC759 (C(14-21)-L5A)] | – | – | 0.03 | – | – | – | – | – | – | EC50 [nM] of receptor-mediated cAMP synthesis (human GIP receptor [2]): 0.03 nM
Y[Aib]EGTFTSDYSIYCDKQAA[Aib]CFVNWLLAGGPSSGAPPPS-NH2 (linker 14-21 via C20L5A; reading uncertain) [C(14-21)-C20L5A] | – | – | 0.05 | – | – | 0.07 | 0.04 | 0.04 | 0.05 | –
H-Y[Aib]EGTFHSDYDIYKDKQAA[Nle]KFVAWLLAGGPSSGAPPPS-NH2 (linker 14-21 via K5; not fully specified; reading uncertain) [ZA-42 - K5] | ~13700 | 303 | – | – | – | – | – | – | – | –
H-Y[Aib]EGTFHSDYDIYKDKQAA[Nle]KFVAWLLAGGPSSGAPPPS-NH2 (linker 14-21 via K4; not fully specified; reading uncertain) [ZA-42 - K4] | 18.8 | 20.4 | – | – | – | – | – | – | – | –
B1 | 0.01 | 0.02 | 0.01 | 0.01 | 0.01 | 0.04 | 0.01 | 0.01 | 0.02 | EC50 of receptor-mediated cAMP synthesis, GLP1R (nM), 03/26 (human GLP-1 receptor [7]): 0.01 nM; EC50 of receptor-mediated cAMP synthesis, GLP1R (nM), average (human GLP-1 receptor [7]): 0.01 nM; EC50 [nM] of receptor-mediated cAMP synthesis (human GLP-1 receptor [1]): 0.03 nM; EC50 [nM] of receptor-mediated cAMP synthesis (human GIP receptor [2]): 0.01 nM; EC50 [nM] of receptor-mediated cAMP synthesis (human GLP-1 receptor [5]): 0.03 nM
Y[Aib]EGTFISDVSIYCDKQAA[Aib]CFVNWLIAGGPSSGAPPPS-NH2 (linker 14-21 via L5A; not fully specified; reading uncertain) [7I, 10V, 27I, C(14-21) - L5A] | – | – | 12.6 | – | – | – | – | – | – | EC50 [nM] of receptor-mediated cAMP synthesis (human GLP-1 receptor [5]): 83.9 nM
Y[Aib]EGTFTSDYSIYLDKCAA[Aib]EFVCWLLAGGPSSGAPPPS-NH2 (linker 17-24 via C20L5A; not fully specified; reading uncertain) [C(17-24)-C20L5A] | – | – | – | 0.07 | 0.1 | 0.04 | 0.02 | 0.03 | 0.03 | EC50 [nM] of receptor-mediated cAMP synthesis (human GLP-1 receptor [1]): 0.11 nM; EC50 [nM] of receptor-mediated cAMP synthesis (human GIP receptor [2]): 0.05 nM
Y[Aib]EGTFTSDYSIYKDKQAA[Aib]KFVNWLLAGGPSSGAPPPS-NH2 (bridge 14-21 via K5; reading uncertain) [mCLZ715] | 0.02 | 0.02 | – | – | – | – | – | – | – | –
Y[Aib]EGTYTSDYSIYLDKCAA[Aib]EFVCWLIAGGPSSGAPPPS-NH2 (linker 17-24 via C20L5A; not fully specified; reading uncertain) [6Y, 27I, C(17-24)-C20L5A] | – | – | – | 0.05 | 0.07 | 0.27 | 0.27 | 0.25 | 0.26 | EC50 of receptor-mediated cAMP synthesis, GLP1R (nM), 03/26 (human GLP-1 receptor [7]): 0.06 nM; EC50 of receptor-mediated cAMP synthesis, GLP1R (nM), average (human GLP-1 receptor [7]): 0.06 nM
